Laboratory results as given in paper PMC8424379 (2021).

B1: Ccq1_(496–583), Raf2-binding motif of Ccq1, fused to Gal4 activation domain [S. pombe] / Raf2 fused to Gal4 DNA-binding domain [S. pombe] (parent complex)
chain 1: SQQEADEVELSNNYDLQGAAVQYLQRRLRMVEDELHEAINSKNVQQSRSEELEQQISKLTDNLQEYRNTVRELKLDLEKSKKKNEDLS
chain 2: MPPVRAEKKRKTDLIEQVCVTNKAGELVDLEDVLEYGPYSLTGILSSEKDEQEPLFDESIVLGYSIKISPVWTYNLKDVPEKETMSIWIVTPQRRYGILSPSSEYKAIYEQISEKNRLFYLIKTKFKDDMISGTLEDYDNYIEVLKEKLELPSCFQAILLVQKHIRFLLTQMVATSSLHVWSESPFFIRIRSSYEHLILQINKNIYNARQERKKSKLSSNNPSDNNTTMKSSLNQALTLINLPEQPFSISSPTATPQLGVVKRTSPLRFPLNDIWLSGLRIVDPNIESISLWKRIQVSTSPKHQRYISLQEVCSVIAQQLQITNLEALNKLSSHGETLLQIMHTAFTWRGTKLFNDIKHAIGFRSSVQQARSQFRGYCYDYLFMHCNNGEKTSLHLLRTLICMKLDFSNAQLAAKILFHFLLFDIGSGLSGSDYTYEQYINHSAVAFSFTEEIFEKNFVTVLPDFVKLFSISFGYWPAFSFYDELLKLLRNKYPKVYSSTPNLCDQVWLDRTNLFPCNRSTRSTLPYRPTKLLDLASASSCLSKKETDFKQDTGLYSYNLEKVEALKVSPDLQTGIWSCPVQNCLYFAVCDNPYKPSQVIYDHLLGHVDSKFIFKTPSNSVRSFTNKLEHIMYNIN
B2: full-length Ccq1 fused to Gal4 activation domain [S. pombe] / Raf2 fused to Gal4 DNA-binding domain [S. pombe] (parent complex)
chain 1: MSEINDFTNSIIINESDTKYEVYSEVNSSNRWIAKEDCPSPLEDVWLLKLAGHKRKLEEPLSCMRNEEPASKQREIEKFLRTDLDHSENDFLTQEVDEFPSTQQLFPIPLQNDTAFDSSEESITKSSKSSFSVLDIGLPMSALQRKMMHRLVQYFAFCIDHFCTGPSDSRIQEKIRLFIQSAHNIAKHPSLYDTEVRNPSAAESTNSHVSLDASNFSSYAENSSKFLFLQELFKNLSPSYSKTFFLFISNQFLANTLTQWLKSQNIDAELWAEEDAKTSQHPAIWICVSKKAPSASHFLQSCPDLSATIFYDIEAYMSVTSSLPSIQSLVLRLIHLGSIEHAIKCFQSSYNASFLVNIVGVVATLSSSSEENSEASNLSTLFEKSGNFEEILGSESHSSITEKTRDIAKNVATWLKNGENFSSWPLPPLMDLASLSVAEPRDSQPSVSQVNDTFVKSSDSTFPSSQSMQSPSKLHSLTSNATDLLSSSSLKKNFFSQQEADEVELSNNYDLQGAAVQYLQRRLRMVEDELHEAINSKNVQQSRSEELEQQISKLTDNLQEYRNTVRELKLDLEKSKKKNEDLSKLEVEKVEEIANLKKELTHLAKQQEFGFKYVQEFSNEDLQGKLIEANEKNYKLTQLLKTQKEDADFITNQYQNASTFAAEQSKEVAKLQAECKRLQAINSKVMEEVKVYNDSRVEALLAKVSSLEETLKILEQKSLPKFTPHNQSPRIIDSN
chain 2: B1 chain 2
B3: full-length Ccq1 fused to Gal4 activation domain [S. pombe] / Clr3 fused to the Gal4 DNA binding domain [S. pombe] (parent complex)
chain 1: B2 chain 1
chain 2: MLASNSDGASTSVKPSDDAVNTVTPWSILLTNNKPMSGSENTLNNESHEMSQILKKSGLCYDPRMRFHATLSEVDDHPEDPRRVLRVFEAIKKAGYVSNVPSPSDVFLRIPAREATLEELLQVHSQEMYDRVTNTEKMSHEDLANLEKISDSLYYNNESAFCARLACGSAIETCTAVVTGQVKNAFAVVRPPGHHAEPHKPGGFCLFNNVSVTARSMLQRFPDKIKRVLIVDWDIHHGNGTQMAFYDDPNVLYVSLHRYENGRFYPGTNYGCAENCGEGPGLGRTVNIPWSCAGMGDGDYIYAFQRVVMPVAYEFDPDLVIVSCGFDAAAGDHIGQFLLTPAAYAHMTQMLMGLADGKVFISLEGGYNLDSISTSALAVAQSLLGIPPGRLHTTYACPQAVATINHVTKIQSQYWRCMRPKHFDANPKDAHVDRLHDVIRTYQAKKLFEDWKITNMPILRDSVSNVFNNQVLCSSNFFQKDNLLVIVHESPRVLGNGTSETNVLNLNDSLLVDPVSLYVEWAMQQDWGLIDINIPEVVTDGENAPVDILSEVKELCLYVWDNYVELSISKNIFFIGGGKAVHGLVNLASSRNVSDRVKCMVNFLGTEPLVGLKTASEEDLPTWYYRHSLVFVSSSNECWKKAKRAKRRYGRLMQSEHTETSDMMEQHYRAVTQYLLHLLQKARPTSQ
B4: full-length Ccq1 fused to Gal4 activation domain [S. pombe] / Tpz1 fused to the Gal4 DNA binding domain [S. pombe] (parent complex)
chain 1: B2 chain 1
chain 2: MSNCLKHPWLENGLLNLIKNADVLPIRVFKCQPLQIFEYIRYEHPIRCKLSDTEFYIEAEFSSQSISDLNNFTEKRITSLRGGIVTLGNFLIHLIPSQSGIIPWIQVESFNFQGCEGAVFGNPKAITTSALFNALLQSPYLAALANEFNRSIKEGSSYQEASLSQQEKPNDNTSNSRDIKNNIQFHWKNMTSLSIEECIIPKGQQLILEKESEENTTHGIYLEERKMAQGLHNSVSETPEVKQEDNDEDLDAYSWSSSTDSAGEIPSLPTNRKILEKIAEKPPPFESPLEDDETPDQTNEHEANQVNVSQLPLNPRGSGISGRPVESTEQLNSSLTIERSQSIQSTDSKQRVETQSHRRSKIEIFDAQDELFDRSICTTIDDSTGKLLNAEETPIKTGDLHSTSASSVISCTPPAINFTSDICNEQIELEYKRKPIPDYDFMKGLETTLQELYVEHQSKKRRLELFQLTNNHQKNSEACEMCRLGLPHGSFFELLRDWKKIEEFRNKS

Variants of: B1
Test: yeast two-hybrid (β-galactosidase); Raf2 fused to Gal4 DNA-binding domain; Ccq1 fused to Gal4 activation domain; read off a plot

| Variant | response |
| --- | --- |
| chain 1 Y14R | ~88 |
| chain 1 V31R | ~80 |
| chain 1 H36R | ~94 |
| chain 1 Y23R | ~3 |
| chain 1 L10R | ~87 |
| chain 1 L35R | ~74 |
| chain 1 Y66R | ~79 |
| chain 1 L24R | ~2.5 |
| chain 1 L28R | ~3 |
| chain 1 L16R | ~3 |
| chain 1 I39R | ~90 |
| chain 1 V44R | ~81 |
| chain 1 V21R | ~2.8 |
| chain 1 L52R | ~63 |
| chain 1 V8R | ~82 |
| chain 1 L63R | ~85 |
| chain 1 M30R | ~92 |

Variants of: B2
Test: yeast two-hybrid (β-galactosidase); Raf2 fused to Gal4 DNA-binding domain; Ccq1 fused to Gal4 activation domain; parent: 97; read off a plot

| Variant | response |
| --- | --- |
| chain 1 L511R | ~3.8 |
| chain 1 V526R | ~110 |
| chain 1 L519R | ~4.8 |
| chain 1 M525R | ~110 |
| chain 1 V516R | ~3.8 |
| chain 1 L523R | ~51 |
| chain 1 Y518R | ~4.5 |

Variants of: B3
Test: yeast two-hybrid (β-galactosidase); Clr3 fused to the Gal4 DNA binding domain; Ccq1 fused to Gal4 activation domain; parent: 97; read off a plot

| Variant | response |
| --- | --- |
| chain 1 L519R | ~89 |
| chain 1 L523R | ~94 |
| chain 1 Y518R | ~80 |
| chain 1 V516R | ~82 |
| chain 1 L511R | ~88 |

Variants of: B4
Test: yeast two-hybrid (β-galactosidase); Tpz1 fused to the Gal4 DNA binding domain; Ccq1 fused to Gal4 activation domain; parent: 94; read off a plot

| Variant | response |
| --- | --- |
| chain 1 Y518R | ~91 |
| chain 1 V516R | ~81 |
| chain 1 L523R | ~90 |
| chain 1 L519R | ~83 |
| chain 1 L511R | ~95 |
